These results are taken from publication PMC6921966 (Frontiers in Immunology, 2019).

Assay [1] addresses M2 of A/Udorn/307/1972 (H3N2) on infected cells (influenza A virus A/Udorn/307/1972 …, UniProt P0DOF5). Description: flow cytometry on cells. The note with it: one partner purified. Background: A flow cytometer gives signals particle by particle.
The target of assay [2] is M2 of A/Puerto Rico/8/1934 (H1N1) on infected cells (Influenza A virus A/Puerto Rico/8/1934 …, UniProt P06821). Description: flow cytometry on cells. To be noted: one partner purified.
M2 of A/Puerto Rico/8/1934 (H1N1) on infected cells, sequence (P06821 whole entry): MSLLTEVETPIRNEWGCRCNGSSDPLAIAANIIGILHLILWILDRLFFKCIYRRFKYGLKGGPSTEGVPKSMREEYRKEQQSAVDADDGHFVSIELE
The target of assay [3] is M2 of A/Swine/Ontario/42729A/2001 (H3N3) on infected cells (Influenza A virus …, UniProt Q64HP7, strain). Description: flow cytometry on cells. The note with it: one partner purified.
The target of assay [4] is T1, human H3N2 M2e peptide (Influenza A virus, human H3N2 consensus).
T1 chain: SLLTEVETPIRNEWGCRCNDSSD
Put plainly: ITC; […] (300 μM) […] (30 μM) in PBS; […]. To be noted: both partners purified. A general note: Isothermal titration calorimetry measures the heat released or taken up as one component is titrated into another.

For assay [5], the target named is T1, human H3N2 M2e peptide. Put plainly: ELISA. The note with it: both partners purified.
The target in assay [6] is T2, mouse FcγRIV on transfected HEK293T cells (Mus musculus, UniProt A0A0B4J1G0).
T2 construct: also called FcγRIV transfected cells
T2 sequence (A0A0B4J1G0 21-249): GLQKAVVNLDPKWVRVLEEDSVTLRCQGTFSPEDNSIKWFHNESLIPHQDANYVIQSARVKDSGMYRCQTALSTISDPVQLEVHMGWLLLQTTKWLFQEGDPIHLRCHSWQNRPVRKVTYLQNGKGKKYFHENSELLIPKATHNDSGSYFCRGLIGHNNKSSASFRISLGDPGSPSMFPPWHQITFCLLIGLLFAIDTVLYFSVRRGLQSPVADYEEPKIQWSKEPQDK
Put plainly: flow cytometry on cells. To be noted: one partner purified.

Positions count from the first letter of the chain named.

M2 of A/Udorn/307/1972 (H3N2) on infected cells, sequence (P0DOF5 whole entry): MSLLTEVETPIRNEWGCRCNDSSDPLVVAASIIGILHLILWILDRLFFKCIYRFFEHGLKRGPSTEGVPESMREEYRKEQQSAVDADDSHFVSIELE

B1: M2e-VHH-23m (VHH)
VHH: QVQLQESGGGLVQTGGSLRLSCAFSGFTSDDYVIGWFRQAPGKGRQGVSCIRLSGGGTIYADSAKGRFTVSADNAKKTVYLQMTRLKPEDTAVYYCGAERYNVEGCGYDVAYWGKGTQVTVSS
notes: also called M2e-VHH-m23; M1e- VHH-23m; not shown: His6, C-terminal, kept
Take B1: the binding result was “binds” in assay [1] and “no binding (tested: 20 μg/ml)” in assay [3]. The dissociation constant Kd in assay [2] was 13.6 nM; in the assay with human H3N2 M2e peptide [4], 730 nM. Moreover, the “stoichiometry N” value with human H3N2 M2e peptide [4] is 1.

B2: M2e-VHH-66m (VHH)
VHH: B1 VHH with T28I, V70I, R85S, Y101H
notes: not shown: His6, C-terminal, kept
As to B2, in the assay with human H3N2 M2e peptide [5], the binding result is “binds”.

B3: FcγRIV-VHH-7m (VHH)
VHH: QVQLQESGGGLVQAGGSLRLSCAASGFTVDDYSIGWFRQAPGKEREGVSCISIRDGSTGYTDPVKGRFTISSDNAKNMVYLQMNMLKPEDTAVYYCAGDIYCSNDDVGVGPYDYWGQGTQVTVSS
notes: also called FcgRIV-VHH-7m; FcγRIV-specific VHH
Take B3: in assay [6], the binding result is “binds”.

B4: M2e-VHH-10m (VHH)
VHH: QVQLQESGGGLVQAGESLSLSCAASGLAFDDYVIGWYRQAPGKGREGLSCMRLSNGAIMYGPSVKGRFTMSSDNAKSTFFLQMTRLIPEDTAVYYCGAEKHDVNGCGFDVAYWGQGTQVTVSS
notes: as for B2
As to B4, the binding result with human H3N2 M2e peptide [5] is reported as “binds”.

The Kd is the constant that tells how readily two partners part at equilibrium. A high value points to a looser complex. Broadly, the stoichiometry N is a count of units in the complex or per binding partner.
